Reference: the Immune Epitope Database (IEDB)

What was measured:
HLA-A*02:06 [1] = experiment: IEDB peptide-MHC binding, cellular MHC/competitive/fluorescence; ≥ and ≤ were set here for values at or beyond the usual limits of such assays
HLA-A*02:03 = experiment: as above
HLA-A*68:02 [2] = experiment: as above
HLA-A*02:01 [3] = experiment: as above
HLA-A*02:02 [4] = experiment: IEDB peptide-MHC binding, purified MHC/competitive/radioactivity; ≥ and ≤ were set here for values at or beyond the usual limits of such assays
HLA-A*02:02 [5] = experiment: IEDB peptide-MHC binding, cellular MHC/competitive/fluorescence; ≥ and ≤ were set here for values at or beyond the usual limits of such assays
HLA-A*02:06 [6] = experiment: IEDB peptide-MHC binding, purified MHC/competitive/radioactivity; ≥ and ≤ were set here for values at or beyond the usual limits of such assays
HLA-A*68:02 [7] = experiment: as above
HLA-A*02:01 [8] = experiment: as above
[9] = source organism: Vaccinia virus WR
[10] = source organism: Influenza A virus

Sequence | IC50 (HLA-A*02:06 [1]; [9]) | IC50 (HLA-A*02:03; [9]) | IC50 (HLA-A*68:02 [2]; [9]) | IC50 (HLA-A*02:01 [3]; [9]) | IC50 (HLA-A*02:02 [4]; [9]) | IC50 (HLA-A*02:02 [5]; [9]) | IC50 (HLA-A*02:06 [6]; [9]) | IC50 (HLA-A*68:02 [7]; [9]) | other results
DIKYDNKLL | ≥ 70 µM | 49.8 µM | 24.8 µM | 26.5 µM | 1.42 µM |  |  |  | 
LIFNVKSKLL | 28.5 µM | 6.69 µM | 32.6 µM | 25.5 µM | 2.39 µM |  |  |  | 
IVPDIKLDA |  | 15.7 µM |  | 42.2 µM |  | 6.39 µM | 3.43 µM | 2.89 µM | 
CAVNTPVSM |  | 15.7 µM |  | 49.1 µM |  | 6.27 µM | 1.52 µM | 0.502 µM | 
VAVNKSNKPL | 17.6 µM | 5.13 µM | 9.35 µM | 45 µM | 2.75 µM |  |  |  | 
SAFDERRNRYL |  |  |  |  |  |  |  |  | IC50 (HLA-A*02:06 [1]; [10]): 34.7 µM; IC50 (HLA-A*02:03; [10]): 5.17 µM; IC50 (HLA-A*68:02 [2]; [10]): 5.9 µM; IC50 (HLA-A*02:01 [3]; [10]): 17.8 µM; IC50 (HLA-A*02:02 [4]; [10]): 1.28 µM
NTVSSFQV |  |  |  |  |  |  |  |  | IC50 (HLA-A*02:02 [5]; [10]): ≥ 70 µM; IC50 (HLA-A*02:03; [10]): 60.1 µM; IC50 (HLA-A*02:01 [3]; [10]): 52.7 µM; IC50 (HLA-A*02:06 [6]; [10]): 4.48 µM; IC50 (HLA-A*68:02 [7]; [10]): 0.566 µM
STTGEWPLI |  | 44.5 µM |  | 8.57 µM |  | 21.1 µM | 1.24 µM | 0.602 µM | 
KADAVVADL |  | 12.4 µM | 23.4 µM |  |  | 5.14 µM | 2.21 µM |  | IC50 (HLA-A*02:01 [8]; [9]): 3.96 µM
QAIMDKNIIL |  |  |  |  |  |  |  |  | IC50 (HLA-A*02:06 [1]; [10]): 13.4 µM; IC50 (HLA-A*02:03; [10]): 11.4 µM; IC50 (HLA-A*68:02 [2]; [10]): 8.92 µM; IC50 (HLA-A*02:02 [4]; [10]): 0.937 µM; IC50 (HLA-A*02:01 [8]; [10]): 1.02 µM
LVIRNEVNDT |  | 15.2 µM |  | 12.6 µM |  | 5.5 µM | 2.17 µM | 0.854 µM | 
SMGVYQILA |  |  |  |  |  |  |  |  | IC50 (HLA-A*02:06 [1]; [10]): 10.4 µM; IC50 (HLA-A*02:03; [10]): 7.05 µM; IC50 (HLA-A*68:02 [2]; [10]): 16.8 µM; IC50 (HLA-A*02:02 [4]; [10]): 0.518 µM; IC50 (HLA-A*02:01 [8]; [10]): 0.978 µM
IMLIIFWFSL |  |  |  |  |  |  |  |  | IC50 (HLA-A*02:06 [1]; source organism: SARS-CoV1): 16.8 µM; IC50 (HLA-A*02:03; source organism: SARS-CoV1): 14.9 µM; IC50 (HLA-A*68:02 [2]; source organism: SARS-CoV1): ≥ 70 µM; IC50 (HLA-A*02:02 [4]; source organism: SARS-CoV1): 1.54 µM; IC50 (HLA-A*02:01 [8]; source organism: SARS-CoV1): 3.83 µM
YTGGYDVSL | 20.3 µM | 6.05 µM | 6.67 µM |  | 1.99 µM |  |  |  | IC50 (HLA-A*02:01 [8]; [9]): 3.74 µM
SAGFTATICL |  | 20.1 µM |  | 10.4 µM |  | 6.9 µM | 2.41 µM | 3.88 µM | 
QIYLSDSDNI | 14.9 µM | 19.6 µM |  | 24.9 µM | 1.24 µM |  |  | 0.658 µM | 
NVLSIAPI |  |  |  |  |  |  |  |  | IC50 (HLA-A*02:02 [5]; [10]): 39.7 µM; IC50 (HLA-A*02:03; [10]): 17.4 µM; IC50 (HLA-A*02:01 [3]; [10]): 8.52 µM; IC50 (HLA-A*02:06 [6]; [10]): 2.34 µM; IC50 (HLA-A*68:02 [7]; [10]): 1.33 µM

Sequence | IC50 (HLA-A*02:06 [1]; [9]) | IC50 (HLA-A*02:03; [9]) | IC50 (HLA-A*68:02 [2]; [9]) | IC50 (HLA-A*02:01 [3]; [9]) | IC50 (HLA-A*02:02 [4]; [9]) | IC50 (HLA-A*02:02 [5]; [9]) | IC50 (HLA-A*02:06 [6]; [9]) | IC50 (HLA-A*68:02 [7]; [9]) | other results
VVECLTVPNI |  | 19.6 µM |  |  |  | 8.42 µM | 0.301 µM | 3.75 µM | IC50 (HLA-A*02:01 [8]; [9]): 4.28 µM
VVIVENDNV |  | 38 µM |  | 34.4 µM |  | 13.2 µM | 4.3 µM | 0.967 µM | 
YLSKEDRIIT | 48.7 µM | 5.57 µM | 21.5 µM | 11.9 µM | 1.3 µM |  |  |  | 
NLYISDYKM | 11 µM | 25.3 µM | 14.9 µM | 6.17 µM | 2.79 µM |  |  |  | 
QTVDFTDCRT |  | 54.3 µM |  | 40.1 µM |  | 30.5 µM | 3.65 µM | 0.033 µM | 
VATFRDMLL | 7.71 µM | 9.94 µM | 5.92 µM | 8.94 µM | 2.53 µM |  |  |  | 
NAILHNIYRL |  | 10.2 µM |  |  |  | 5.61 µM | 0.576 µM | 0.724 µM | IC50 (HLA-A*02:01 [8]; [9]): 0.54 µM
GVLHTKFWI |  | 12.3 µM | 43.9 µM |  |  | 16.6 µM | 0.417 µM |  | IC50 (HLA-A*02:01 [8]; [9]): 2.71 µM
TTENAAYQV |  | 51.3 µM |  | 29.6 µM |  | ≥ 70 µM | 0.442 µM | 0.187 µM | 
PLPCQLMYAL | 9.81 µM | 8.71 µM | 31.3 µM | 13 µM | 0.163 µM |  |  |  | 
SANMDWRSLT | 48.1 µM | 11.3 µM | 15.4 µM | 55.7 µM | 1.79 µM |  |  |  | 
QAKKPEVRI | 42 µM | 6.57 µM | ≥ 70 µM | 39.7 µM | 0.738 µM |  |  |  | 
DAEFVMCLEA | 12.7 µM | 7.3 µM |  | 9.14 µM | 2.41 µM |  |  | 1.59 µM | 
KISVEKIKQT | 21 µM | 8.96 µM | 11.2 µM |  | 1.23 µM |  |  |  | IC50 (HLA-A*02:01 [8]; [9]): 4.67 µM
RTRCKYVGCT | 11.6 µM | 12.3 µM |  | 48.5 µM | 0.149 µM |  |  | 4.69 µM | 
LISILMIFI | 7.03 µM | 5 µM | 10.5 µM |  | 2.37 µM |  |  |  | IC50 (HLA-A*02:01 [8]; [9]): 1.29 µM
